# According to the DeepSol protein solubility set:
# Assay: soluble on expression in E. coli; label from the status in PepcDB or PDB records
row,Sequence,soluble on expression in E. coli
1,MAPTMNNGWMDSLSWIKSETPENSVVTCWWDNGHIYTWATRKMVTFDGGSQNTPRAYWVGHAFSTSDENLSVGILRMLATSGDSAYDDDSILIKKTGSIKDTVDILNKILPLTRTEAKASLVNNYDLTDAEAEEVLDLTHPKVTNPDYLITYNRMTSIASVWSMFGNWNFSLPASTENSDREMGLEHHHHHH,soluble
2,SREWRTKIQAQIDRFPIGDREGEWQTMIQKMVSSYLVHHGYCATAEAFARSTDQTVLEELASIKNRQRIQKLVLAGRMGEAIETTQQLYPSLLERNPNLLFTLKVRQFIEMVNGTDSEVRCLGGRSPKSQDSYPVSPRPFSSPSMSPSHGMNIHNLASGKGSTAHFSGFESCSNGVISNKAHQSYCHSNKHQSSNLNVPELNSINMSRSQQVNNFTSNDVDMETDHYSNGVGETSSNGFLNGSSKHDHEMEDCDTEMEVDSSQLRRQLCGGSQAAIERMIHFGRELQAMSEQLRRDCGKNTANKKMLKDAFSLLAYSDPWNSPVGNQLDPIQREPVCSALNSAILETHNLPKQPPLALAMGQATQCLGLMARSGIGSCAFATVEDYLH,soluble
3,MTTLNKENIQKEFKERLSEDELLNCMRCGFCLPTCPTYIQSGYKESHSPRGRIALMKAVVDGLIEPDEDVENTLNVCLGCRACEPVCPSGVNYGHLLEEARDIINQNKKFSMPVRAVRKVVFEELFPHQNRMRTLTGLIGFYQRSGLQTITHKTGIMKLFPETLATMDLVLPKVPKMKAMKDRPTFLPAESTKKKQVAFFTGCLMDTMFLETNNATMKLLQLAGCDIVIPKTQSCCGALHGHAGEKSGAKELAKRNIKAFEDLNIDYIITNAGGCGAYLVDYDYLLKDDPQWAGRAKQFVSKIKDITAILVELDFHKRNDLRLTPQIITYQDSCHLRNVMRTSSEPRMLLEAIQGATYREMKDADRCCGSAGIYNIVHSELSMEFLDYKMDRVHETDATTIVTANPGCLLQMKLGIEREGLSHKMRGIHIVDLLLEAIETNS,not soluble
4,MQDEFDLFRTETKGIKPIKQDTFVAPRQKRDQKKIELKELRAKEDTLFYFSDEYEPLLNDNDGVVKYLRDGEDSHLLKQLRRGDFSPELFLDLHGLTREQAKQELAALLLACENEHVDCASIMTGYGTFTLKKQIPRWLVQHPKVRALHQAPREWGGEAAILILVDL,soluble
5,EQSSSEIKIVRDEYGMPHIYANDTWHLFYGYGYVVAQDRLFQMEMARRSTQGTVAEVLGKDFVKFDKDIRRNYWPDAIRAQIAALSPEDMSILQGYADGMNAWIDKVNTNPETLLPKQFNTFGFTPKRWEPFDVAMIFVGTMANRFSDSTSEIDNLALLTALKDKYGVSQGMAVFNQLKWLVNPSAPTTIAVQESNYPLKFNQQNSQTAALLPRYDLPAPMLDRPAKGADGALLALAAGKNRETIAAQFAQGGANGLAGY,soluble
6,MGSDKIHHHHHHMNETVSLETREVRFLSVFDFDGTLTYRDSFVPFLRFAFGNRVFVRRMLRMAGPSLAYLCRRIDRDDLKARLIATFLTDVPVHVLEERALAYQNRFWETLMRPHALTAVADQVSSGSTVTICSASPSLLLRPFAEKLGVHLIATELEVVDGVLTGRIVGRNCRRDEKVCRLERHYGPLTQYSLRAWGDSRGDTELLAAALERFWKPFR,not soluble
7,MGSDKIHHHHHHMDKAFPSGLAVGIFDHLDEDGPDIARQYEDRLMLAEACDHLGFYAYHLAEHHCTPHGRGPSPNLFLSSVAQRTRRLRVGPLVMLLALYHPLRAFEEICMLDQLSGGRLELGIGRGSLPIELGYFGIGSDAAPNHYAEASEILINALKGGTLSYQGRHFELNSVPLTLRTHQRPHPPTWIATNRPESAVWAAANGVNIACVGPSSSVRRITDAFRREHTSEADDQTPFLGLLRMVVIGRSETDARSLAAPAYERWLKSFKFLYDLNGMPTPPNLPLTFDAAIEKELCVVGTAASAGHALLEQLEAAGANYLLCQPAFGNLSLDASLYTATAIQSAIMARVG,not soluble
8,MRGEAGELAVSSGEIATGALSPEKQQEQELMGKLAATGKLPARPASSFLQKKLQQRKFFDSGDYAMDKSKAGTGLGSKPHPLAGGPPPAAPPVVAQRSPAPAATTPSPSASPISQQTNRPSSDRNSDDDNLQIPRPDTVPQRKASIINPSVHCKLSPAPHVQHHDAASPNATSE,soluble
9,MGSDKIHHHHHHGGLGDKSFNDGTWAGIKQAAEELGIEAKVIQSYEQSDYIPNLSKAAEEADLVFAVGFMMTNDLFKVAKQYPDTYFVGIDITPPEGQILPNVLTFTFKEQEAAFLVGYVAAAMTKTGMVGFVGGIPIPPVERFRYGYEAGIKTYSVLHKKNVKILRGYTQDFEDPKKGKDLAMSQFAEGADIVFHASGACGNGVIEAAREKFSALAGSDKLVDLIDYYTTNGKGFFAIGVDMDQDYMAPGAVLTSAMKRVDVASYYGVVWAYEGTFEGGHRVLGISEDAVGISPMKYTKGLVPNRVIAELLYLEKLMKEGTLKVPETQEELDAFEVPQIEFPF,not soluble
10,MLTFNDNKAGMNGLDKEKITKVIEENTSASYSSFSKKQQSRIEEKVLEIKNRLQTATREERQKSEILMENLEMKLESSRDLSRDCVCIDMDAYFAAVEMRDNPALRTVPMAVGSSAMLSTSNYLARRFGVRAGMPGFISNKLCPSLTIVPGNYPKYTKVSRQFSQIFMEYDSDVGMMSLDEAFIDLTDYVASNTEKKTFKRHRFGGDCPCWLPRFDENENTLEDLKIEESICPKCEKSRKIYYDHVEFGTGREEAVREIRFRVEQLTGLTCSAGIASNFMLAKICSDLNKPNGQYVLENDKNAIMEFLKDLPIRKVGGIGRVCEAQLKAMDIQTVGDMNLKKNLYPLCFTPLSQESFLRTALGLPGRPSESDPRRKSISVERTFSPTSDFNILLEEHQEICRMLEEDVRKSGIVGGKTVTLKLKLSSFDVLTRSLTPSDVVKSLEDIQKFSLELLEKEKGKEIRLLGVRLSQLIFEEDEKKRSKTVCQKILKTITDKYKAMFSSIFLRHFISDHRVLE,not soluble
11,MLEFDTTQDQLANIKVIGVGGGGNNAVNRMIEHGVQGVDFIAVNTDAQALNLSKAETKMQIGGKLTRGLGAGANPEVGKKAAEESKEQIQEALRGADMVFVTAGMGGGTGTGAAPVVAQVAKELGALTVGVVTRPFTFEGRKRATQAASGIAAFKENVDTLIVIPNDRLLEIVDKNTPMLEAFREADNVLRQGVQGISDLIATPGLINLDFADVKTIMSNRGSALMGIGSGNGENRAAEAAKKAISSPLLETSIDGAQGVIMNITGGANLSLYEVQEAADIVASASDPEVNMIFGSVINEGLKDDIVVTVIATGFDDSIATQPPKPIIRPNVNHTQQQQQPVAQPPKQREVKREMKREEPVVHERHSDSDSDDIDIPAFLRNRRRR,not soluble
12,MESFELEDLTLWLIRDADEAEMWIDRWAVSYPVVQMSEASANGSTEAWQSALQTAFERIQGRHIAVVAHGAGAAAFLAWLYRADILTQKKLAGIILVSPRPDIFPDDAEHTFQRVRCPCRAALVVSEHGGVPHGWAQKQADLWNARLLVSPHSGSLNGMLGGWQWGMKLMQEMLLA,not soluble
13,MRIWIDADACPKAAKELVCKFALKRKLEVWMVAGQPQVKPPFACVRLVVVESGMDAADDYLVEQAEPGDLAICSDVPLADRLIKKQVAALDPRGREFDARNMGDKLAMRNLMADLRDQGQMGGGQAPYGERDRQAFANALDRLLTRLQREADLRASQPHR,not soluble
14,MNNLMVIDGIEVRRDAYGRYSLNDLHRAAGSLDKHKPAFWLRNEQTERLISELQICNSVNIEPVNVIRGGNNQGTYVCKELVYAYAMWISPSFHLKVIRTFDMV,not soluble
15,MFKRLFMVALLAIAPLVHAVDQSNPYRLMDEAAKKTFTRLKNEQPKIKQNPDYLRTIVREELLPFVQIKYAGALVLGSYYKDATPAQREAYFNAFGKYLEQAYGQALALYHGQTYDVAPDQPLGDANIVAIRVTILDPSGRPPVRLDFQWRKNSQTGNWQAYDMIAEGVSMISTKQNEWASILRQKGVDGLTQQLLSAAKQPITLDK,not soluble
16,MSLGRGMQKQRFCLDTSAFTEPSVRKALGVKTVTELTDKVMDLIAEARIKLNISCHIPYPTVYNELMGFLENENCPRDVIVKVDTWLVKKTPNRYEIKIPSEIFYEYVKDLRERINKGMRIGEEHIIKATDMVYELSKKHPEMGKNEIINKVLSKTINTFRNKYRSALRVGTLDSAPDLDVLLLAKELDAAVVASDGGIEKWAQRLGLRFVDASDFPFMLEEYLKHNDRHLRIKYEGHHHHHH,soluble
17,MKNIAAAGVLERIRRLAPQASVPPYRTVEEWREWQLAEGRKRSEEINRQNHQLRVEKILNRSGIQPLHSKCSFANYQVQNDGQKYALSQAKSIADELMTGCTNFVFSGKTGTGKNHLAAAMGNRLMAKGRSVIIVTVSDVMSVLHDSYDNGKSGEKFLQELCSVDLLVLDEIGVQRETKNEQVVLHQIIDRRTASLCSVGMLTNLNHAAMSTLLGERIMDRMTMNGGRWVTFNWDSWRPNVSNMRVVK,soluble
18,MGSDKIHHHHHHMQVEQRTLNTAAHPFQITAYWLDQISDFETAVDYPIMIICPGGGFTYHSGREEAPIATRMMAAGMHTVVLNYQLIVGDQSVYPWALQQLGATIDWITTQASAHHVDCQRIILAGFSAGGHVVATYNGVATQPELRTRYHLDHYQGQHAAIILGYPVIDLTAGFPTTSAARNQITTDARLWAAQRLVTPASKPAFVWQTATDESVPPINSLKYVQAMLQHQVATAYHLFGSGIHGLALANHVTQKPGKDKYLNDQAAIWPQLALRWLQEQGLLAGNY,not soluble
19,MSLQQPLAYRMRPRHLDEVVGQQHLVGPGKIIRRMVEAKMLSSMILYGPPGTGKTSIASAIAGSTNYAFRMLNAATDTKKDLQIVAEEAKMSGTVILLLDEIHRLDKTKQDFLLPHLENGRIIMIGATTENPYITINPAIRSRTQIFEVKPLTETDIQQAIQEALTDSTRGLGDYPVHLEEKALQHLTRATNGDLRSALNGLELAVKSTPKNEQGEIKITLPIIEECVQRKALTHVKDGDAHYDVISAFQKSIRGSDVDAALHYLGRLVEAGDLPIICRRLMVIAYEDIGLGNPAAAARTVTAVQAAEKLGFPEARIPLASVVIDLCLSPKSNSAVTAIDAALADIRQGSVGDVPDHLRDAHYAGAKELNRGIGYQYPHNFENGWVNQQYLPDKLKEARYYEPIDIGKYEQALHQQLKRIQEWKEGHHHHHH,soluble
20,MGSDKIHHHHHHMTTTNGIDGSYYYENRPKEQSNSGILGKDDFLRILIAQLQYQDPLNPMDDREFIAQMAQFSSLEQMTNMNSAIQQFVKQQTSQTLVQHSELIGKRVTWKRIIDIDEYRQKEELVENTVTSVRLETNGNVSIQLDSGRWISADQLVQVSGKTNHQEEAEGDVGDNAPDEQEG,not soluble
21,TDKPRHRFFDAETEALYARLARALPGYDFALQGWNRDEDTFIVAAYNDRTPGSRYLYDARRDSLHKLADINPAIPEADMAPVRPVSYQSRDGLTIHGYLTLPAGRAPRNLACIVNPHGGPWARDGWGYNPEVQFLANRGFCVLQMNFRGSTGYGRKFWEAGFGQWGLKMQDDITDGVQWLIDQGIADPRRIGIYGGSYGGYATLAGVAFTPDLYAAAVDYVGVSNLFTFMNTIPPYWKPLLAKMQDMVGDPVRDKARLEATSPALHVDRIKTPLFIAQGAKDPRVNKAESDQVVQALRQRGVEVEYMVKDNEGHGFHNDENKFEFYAAMEKFFTEHLK,not soluble
22,MSLNIETIVKGRRMITKFPPQWQEKLDQVAFTHLTPIQEQAFQPIVDGKNFLGISPTGTGKTLAYVFPSLLALTPKKSQQLLILAPNTELAGQIFEVTKDWAQPLGLTAQLFISGTSQKRQIERLKKGPEILIGTPGRIFELIKLKKIKMMSVNTIVLDEYDELLGDSQYDFVQKISHYVPRDHQMVYMSATNKVDQTSLAPNTFCIDLSEQTNDAIQHFYLMVDKRERTDLLRKFANIPHFRALVFFNSLSDLGATEERLQYNGAAAVSLASDINVKFRKTILEKFKSHQLSLLLATDLVARGIDIDNLDYVIHFDVARDKENYTHRAGRTGRMGKSGIVITFVSHPEDLKKLKKFAKVSEISLKNQQLHFINEGHHHHHH,not soluble
